In assay [1] the target is T1, human CD40-Fc protein (human, biotinylated (sites not given) in the capture ELISA and the benchmark blocking ELISA; not biotinylated in the ligand blocking ELISA).
T1 construct: also called biotinylated human CD40-Fc
The assay is described as follows: capture ELISA: antibody captured on coated goat anti-human IgG F(ab')2, biotinylated human CD40-Fc 1.15 nM, streptavidin-HRP, OD(450-630). How it is done:
The plate was washed once with a washing buffer (PBS+0.05% v/v of Tween-20, PBST) and then blocked with 200 μL/well blocking buffer (PBST containing 5% w/v of skim milk) for 2 h at 37° C. The plate was washed 4 times, and the anti-CD40 antibody of the present application, BM1, BM2, and a negative control hIgG (human immunoglobulin for intravenous injection (pH 4), Hualan Biological Engineering Inc.) serially 5-fold diluted from 66.7 nM in a PBST containing 2.5% w/v of skim milk was added at 100 μL per well. The plate was incubated for 40 min at 37° C. and washed 4 times. A biotinylated human CD40-Fc protein (amino acid residues 21-193 of SEQ ID NO: 30 linked to the N terminus of amino acid residues 99-330 of SEQ ID NO: 28, dissolved in PBST containing 2.5% w/v of skim milk at a concentration of 1.15 nM) was added at 100 μL/well to a 96-well plate coated with the anti-CD40 antibody. The plate was incubated at 37° C. for 40 min and washed 4 times. An HRP-labeled streptavidin (diluted at 1:10000 in PBST, Jackson Immuno Research, Cat. No. 016-030-084) was added at 100 μL/well, and the plate was incubated at 37° C. for another 40 min. After the last wash, 100 μL/well of ELISA substrate TMB (Innoreagents, Cat. No. TMB-S-002) was added and the plate was incubated at room temperature. After 3-10 min, the reaction was stopped by adding 1 M H₂SO₄ at 50 µL/well, and the absorbance of each well was read on a microplate reader using the dual wavelength mode (TMB detection wavelength: 450 nm, reference wavelength: 630 nm). Curves of OD(450-630) values vs. antibody concentration were plotted. Data were analyzed using Graphpad Prism software, and EC₅₀ values were obtained.
(In general: An ELISA detects its analyte on a solid surface through an enzyme-linked reagent.)

Assay [2] has as its target T2, recombinant human CD40-his (Acro biosystems, Cat. No. CD0-H5228) (human, UniProt P25942 21-193).
T2 construct: Bought protein; also called human CD40-his protein; not shown: His tag
The assay is described as follows: SPR (Biacore T200), antibody captured on anti-human IgG chip, CD40-his as analyte, 1:1 fit. From the text:
(§1) Briefly, a goat anti-human IgG (GE Healthcare, Cat. No. BR100839, human antibody capture kit) was covalently linked to a CM5 chip (GE Healthcare, Cat. No. BR100530, carboxymethylated dextran-coated chip) via the primary amine group using a standard amine coupling kit supplied by Biacore (GE Healthcare, Pittsburgh, PA, USA). Unreacted portions on the biosensor surface were blocked with ethanolamine. Then, the anti-CD40 antibody of the present application and two benchmark antibodies (BM1 (dacetuzumab, Genentech Inc., also referred to CD40-BM1, prepared in-house; the heavy and light chain amino acid sequences are set forth in SEQ ID NOs: 40 and 41, respectively) and BM2 (selicrelumab, Abgenix Inc., also referred to CD40-BM2, prepared in-house; the heavy and light chain amino acid sequences are set forth in SEQ ID NOS: 42 and 43, respectively)) at a concentration of 66.67 nM were directed through the chip at a flow rate of 10 μL/min. Then, serially diluted recombinant human CD40-his (Acro biosystems, Cat. No. CD0-H5228, serially 2-fold diluted from 80 nM in HBS-EP⁺ buffer (supplied by Biacore)) or cynomolgus monkey CD40-his protein (Acro biosystems, Cat. No. CD0-C52H6, serially 2-fold diluted from 80 nM in HBS-EP⁺ buffer (supplied by Biacore)) was directed through the chip at a flow rate of 30 μL/min. The antigen-antibody binding kinetics was tracked for 2 min and the dissociation kinetics was tracked for 10 min. The association and dissociation curves were fitted to a 1:1 Langmuir binding model using BIAcore evaluation software. KD, Kₐ, and Kd values were determined.
A general note: Surface plasmon resonance follows binding to a sensor surface in real time, without labels.

Assay [3] concerns the target T3, cynomolgus monkey CD40-his protein (Acro biosystems, Cat. No. CD0-C52H6) (cynomolgus monkey, UniProt G7PG38 21-193).
T3 construct: Bought protein; not shown: His tag
The description is as above.
Text: as §1

In assay [4] the target is T1, human CD40-Fc protein. The assay is described as follows: competitive ELISA: BM2 (selicrelumab) coated as competitor, antibody titrated and pre-mixed with biotinylated human CD40-Fc 0.23 nM, streptavidin-HRP, OD(450-630). The protocol: The ability of the anti-CD40 antibody of the present application to block the binding of the benchmark to human CD40 was determined by competitive ELISA. Briefly, BM2 antibody was immobilized on a 96-well micro plates at 1 μg/mL in PBS, 100 µL/well, and incubated overnight at 4° C. The next day, the plate was washed once with a washing buffer before a blocking buffer (PBST containing 5% w/v of skim milk) was added. The plate was then incubated at 37° C. for 2 h for blocking. During the blocking of the 96-well plate, the anti-CD40 antibody of the present application or the benchmark was serially 5-fold diluted from 66.7 nM with a biotinylated human CD40-Fc protein (amino acid residues 21-193 of SEQ ID NO: 30 linked to the N terminus of amino acid residues 99-330 of SEQ ID NO: 28, dissolved in PBST containing 2.5% w/v of skim milk at a concentration of 0.23 nM) and then incubated at room temperature for 40 min. After the plate was washed 4 times, the antibody/biotinylated human CD40-Fc mixture was added at 100 μL/well to the plate coated with BM2. The plate was incubated at 37° C. for 40 min and again washed 4 times with the washing buffer. An HRP-labeled streptavidin was added at 100 μL/well, and the plate was incubated at 37° C. for 40 min to detect biotinylated human CD40-Fc immobilized on the plate. Again, the plate was washed 4 times with the washing buffer. Finally, TMB was added and the reaction was stopped by adding 1 M H₂SO₄. The absorbance was read on a microplate reader using the dual wavelength mode (TMB detection wavelength: 450 nm, reference wavelength: 630 nm). Curves of OD(450-630) values vs. antibody concentration were plotted. Data were analyzed using Graphpad Prism software, and IC₅₀ values were obtained.

B1: BM2 (selicrelumab) (antibody, human IgG2, kappa, V domains shown)
VH: not shown
VL: DIQMTQSPSSVSASVGDRVTITCRASQGIYSWLAWYQQKPGKAPNLLIYTASTLQSGVPSRFSGSGSGTDFTLTISSLQPEDFATYYCQQANIFPLTFGGGTKVEIKR
notes: Benchmark antibody, prepared in-house; also called CD40-BM2; benchmark
For B1, the EC50 in assay [1] is 1.34 nM. In assay [2], the Kd worked out at 7.84 nM, the koff amounted to 0.00162 s⁻¹ and the kon came out at 206000 M⁻¹ s⁻¹. In addition, in assay [3], the Kd was 8.73 nM, the koff was determined as 0.00151 s⁻¹ and the kon came to 173000 M⁻¹ s⁻¹.

B2: humanized antibody huC1H1-V1 (antibody, human IgG2, kappa, V domains shown)
VH: EVQLVESGGGLVKPGGSLRLSCAASGFTFSNYGISWVRQAPGKGLEWVASISSGGDNTYYPDNVKGRFTISRDNAKNSLYLQMNSLRAEDTAVYYCARAGEKAMDYWGQGTLVTVSS
VL: EIVLTQSPATLSLSPGERATLSCRASQTINNNLHWYQQKPGQAPRLLIKYASQSISGIPARFSGSGSGTDFTLTISSLEPEDFAVYFCQQFSSWPLTFGGGTKVEIKR
notes: Human IgG2 / kappa
Turning to B2, the IC50 in assay [4] came out at 0.513 nM. For the same molecule, in assay [2], the Kd is 1.1 nM, the koff was determined as 0.00248 s⁻¹ and the kon amounted to 2.25e+06 M⁻¹ s⁻¹. In assay [3], this molecule came in with a Kd of 1.11 nM, a koff of 0.00237 s⁻¹ and a kon of 2.14e+06 M⁻¹ s⁻¹.

B3: humanized antibody huC1H1-V2 (antibody, human IgG2, kappa, V domains shown)
VH: EVQLVESGGGLVKPGGSLRLSCAASGFTFSNYGISWVRQAPGKGLEWVSSISSGGDNTYYPDNVKGRFTISRDNAKNSLYLQMNSLRAEDTAVYYCARAGEKAMDYWGQGTLVTVSS
VL: EIVLTQSPATLSLSPGERATLSCRASQTINNNLHWYQQKPGQAPRLLIKYASQSISGIPARFSGSGSGTDFTLTISSLEPEDFAVYFCQQFSSWPLTFGGGTKVEIKR
notes: Human IgG2 / kappa
Molecule B3 showed an IC50 in assay [4] of 0.318 nM. Moreover, in assay [2], the Kd was determined as 1.17 nM, the koff is 0.0027 s⁻¹ and the kon is 2.31e+06 M⁻¹ s⁻¹. For the same molecule, in assay [3], the affinity, expressed as Kd, was 1.07 nM; the koff worked out at 0.00274 s⁻¹; the kon came to 2.56e+06 M⁻¹ s⁻¹.

B4: mouse anti-CD40 monoclonal antibody C1H1 (antibody, V domains shown)
VH: EVKLVESGGGLVKPGASLKLSCAASGFTFSNYGISWVRQTSDKRLEWVASISSGGDNTYYPDNVKGRFTISRENAKNTLYLQMSSLKSEDTALYYCARAGEKAMDYWGQGTSVTVSS
VL: DIVLTQSPVTLSVTPGDSVSLSCRASQTINNNLHWYQQKSHESPRLLIKYASQSISGIPSRFSGSGSGTDFTLSINSVETEDFGIYFCQQFSSWPLTFGAGTKLELK
notes: Parent mouse antibody from a hybridoma; the mouse constant regions are not; also called Mouse C1H1
The molecule B4 displayed an EC50 in assay [1] of 0.203 nM. For the same molecule, in assay [4], the IC50 is 0.125 nM.

B5: chimeric antibody C1H1 (antibody, human IgG1, kappa, V domains shown)
VH: EVKLVESGGGLVKPGASLKLSCAASGFTFSNYGISWVRQTSDKRLEWVASISSGGDNTYYPDNVKGRFTISRENAKNTLYLQMSSLKSEDTALYYCARAGEKAMDYWGQGTSVTVSS
VL: DIVLTQSPVTLSVTPGDSVSLSCRASQTINNNLHWYQQKSHESPRLLIKYASQSISGIPSRFSGSGSGTDFTLSINSVETEDFGIYFCQQFSSWPLTFGAGTKLELKR
notes: also called Chimeric C1H1
As for B5, in assay [1], the EC50 stood at 0.343 nM. In assay [4], this molecule displayed an IC50 of 0.16 nM. Further, in assay [2], the Kd came out at 0.884 nM, the koff was 0.00222 s⁻¹ and the kon amounted to 2.51e+06 M⁻¹ s⁻¹. For the same molecule, in assay [3], the Kd amounted to 0.846 nM, the koff amounted to 0.00215 s⁻¹ and the kon was 2.54e+06 M⁻¹ s⁻¹.

B6: BM1 (dacetuzumab) (antibody, human IgG1, kappa, V domains shown)
VH: EVQLVESGGGLVQPGGSLRLSCAASGYSFTGYYIHWVRQAPGKGLEWVARVIPNAGGTSYNQKFKGRFTLSVDNSKNTAYLQMNSLRAEDTAVYYCAREGIYWWGQGTLVTVSS
VL: DIQMTQSPSSLSASVGDRVTITCRSSQSLVHSNGNTFLHWYQQKPGKAPKLLIYTVSNRFSGVPSRFSGSGSGTDFTLTISSLQPEDFATYFCSQTTHVPWTFGQGTKVEIKR
notes: Benchmark antibody, prepared in-house; also called CD40-BM1; benchmark
Molecule B6 had an EC50 in assay [1] of 0.59 nM. The molecule also showed an IC50 in assay [4] of 0.0461 nM. In addition, in assay [2], the Kd worked out at 9.42 nM, the koff was determined as 0.00756 s⁻¹ and the kon is 803000 M⁻¹ s⁻¹. In assay [3], the Kd amounted to 9.68 nM, the koff is 0.0074 s⁻¹ and the kon came to 764000 M⁻¹ s⁻¹.

The term EC50 denotes the concentration needed to bring the measured effect to its halfway point. Broadly, the Kd is the concentration at which binding is half-saturated. Broadly, the koff is the first-order rate constant of dissociation. Usually kon stands for the second-order rate constant of association. In general, IC50 refers to the concentration that gives 50% inhibition.

The record behind these values is patent US20240398942A1 (CHIA TAI TIANQING PHARMACEUTICAL GROUP, published 2024).
